In patent KR20150068913A:

Target: 광견병 바이러스 CVS-11의 야생형 G 단백질 (rabies virus CVS-11) (UniProt O92284)
Assay: cell-based or functional assay

UniProt O92284, sequence (O92284 20-524 limits assumed): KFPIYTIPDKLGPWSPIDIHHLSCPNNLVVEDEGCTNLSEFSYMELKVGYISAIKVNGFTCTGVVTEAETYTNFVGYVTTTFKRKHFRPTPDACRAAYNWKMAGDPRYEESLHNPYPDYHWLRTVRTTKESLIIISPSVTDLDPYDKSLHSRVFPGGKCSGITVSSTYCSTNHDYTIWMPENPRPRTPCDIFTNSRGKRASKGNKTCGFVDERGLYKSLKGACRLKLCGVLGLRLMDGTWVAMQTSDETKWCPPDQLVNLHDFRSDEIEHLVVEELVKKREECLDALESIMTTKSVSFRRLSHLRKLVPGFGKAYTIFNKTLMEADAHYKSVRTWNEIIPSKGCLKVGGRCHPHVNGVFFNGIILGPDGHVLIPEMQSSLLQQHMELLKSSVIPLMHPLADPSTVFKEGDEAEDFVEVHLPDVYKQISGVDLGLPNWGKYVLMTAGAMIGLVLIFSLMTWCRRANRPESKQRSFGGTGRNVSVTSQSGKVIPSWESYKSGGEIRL

B1: 이 건 항체 2 (antibody, V domains shown)
VH: EVQLVESGAEVKKPGASVKVSCKASGYTFTSYDVSWVRQAPGQGLEWMGWISAYRGNTKYAQKFQGRVTMTTDTSTSTAYMELRSLRSDDTAVYYCARAKSHPYYDFWSGYYVPGAFDIWGQGTMVTVSS
VL: ELQMTQSPSSLSASVGDRVTITCQASQDISNYLTWYQQKPGKAPKLLIYDASNLETGVPSRFSGSGSGTDFTFTISSLQPEDIATYYCQQYDNLPPTFGGGTKVEIKR
RFFIT IU/mL, CVS-11: 1.59 IU/mL
RFFIT IU/mg, CVS-11 (중화능력): 7940 IU/mg
RFFIT Titer, CVS-11: 270
